The text below walks through data of patent US8624002B2, “Prostaglandin E2 binding proteins and uses thereof” (AbbVie, Inc., priority 2008, dated 2014).

A short description of data set [1]: Biotin-PGE2 competition ELISA (prostaglandin selectivity). The data set is classed as binding. The method, then: Competition enzyme linked immunosorbent assays were performed to determine prostaglandin binding specificity for antibodies that bind prostaglandin E2, according to at least one of the two following methods.
ELISA plates (Costar 3369, Corning, N.Y.) were coated with 50 μl/well of anti-host Fc IgG (Sigma, St. Louis, Mo.) at 2 μg/ml in PBS (Invitrogen, Carlsbad, Calif.). Following an overnight incubation at 4° C., the plate was blocked with 200 μl Superblock (Pierce #37535, Rockford, Ill.). The IgG samples were diluted to 6 μg/ml in Assay Buffer (10% Superblock in PBS containing 0.05% Surfactamps (Pierce #37535, Rockford, Ill.). The PGE2-biotinamide was diluted to 3 nM in Assay Buffer. A titration curve in Assay Buffer was prepared for the prostaglandins PGA2 (Cayman Chemicals, Ann Arbor, Mich.), PGD2 (Cayman Chemicals, Ann Arbor, Mich.) and PGE2 (Cayman Chemicals, Ann Arbor, Mich.) starting at 300 nM by a 1:10 serial dilution. The reagents were added to tubes at a volume of 50 μl each/tube and preincubated for 1 hour at room temperature. Following the preincubation, the mix was transferred to the blocked plates and allowed to incubate for 1 hour at room temperature. Next, the plates were washed four times with Tween 20-Tris buffered solution (TTBS). Streptavidin polyhrp40 in Assay Buffer (Fitzgerald Industries, Concord, Mass.) at a 1:5000 dilution was then added to the wells and incubated for 45 minutes at room temperature. A final wash step was performed and the plates were developed using a single step TMB system (Sigma #T8665, Sigma, St. Louis, Mo.) and 100 μl/well 2N H2SO4. Plates were read at 450 nm on a Molecular Devices Spectramax plate reader (Sunnyvale, Calif.). […] IC50 number was determined using GraphPad Prism 5 (GraphPad Software, La Jolla, Calif.). The cross reactivity index was then calculated by IC50 of PGE2/IC50 of other prostaglandin(s).

A short description of data set [2]: Pharmacokinetics of 2B5.8.0 in Sprague-Dawley rats. The conditions noted are these: rat, IV 4 mg/kg. The data set is classed as in vivo. The method, then: Pharmacokinetic studies with mouse mAb 2B5.8.0 were carried out in Sprague Dawley rats and Balb/C mice. Male and female rats and mice were dosed intravenously or intraperitoneally (mice only) with a single dose of 4 mg/kg 2B5.8.0 and serum samples were analyzed using antigen capture based chemiluminescent MSD (Meso Scale Discovery) method (Meso Scale Discovery, Gaithersburg, Md.). Pharmacokinetic parameters were calculated by non-compartmental analysis using WinNonlin.
The following MSD assay was used to measure antibody concentration in rat and mouse serum. MSD streptavidin plates (Meso Scale Discovery, Gaithersburg, Md.) were washed with phosphate buffered saline containing 0.05% Tween-20 (Sigma, St. Louis, Mo.). Plates were blocked with 250 μL/well blocking solution (MSD Block, Meso Scale Discovery, diluted to 3% final concentration in PBS) for 1 hour, covered, with shaking (600 rpm) at room temperature. After washing, 70 μL of biotinylated PGE2 (Prostoglandin E2-biotinamide, Cayman Chemical, Ann Arbor, Mich., cat# 10006987, lot# 190831-191028, 0.01 ug/mL in assay buffer) was added to each well. The plates were covered and incubated with shaking (600 rpm) for 1 hour at room temperature
Prior to analysis, rat and mouse serum samples were thawed on ice, mixed gently, and centrifuged at 14,000 rpm for 3 minutes at 4° C. in an eppendorf centrifuge. Standard curve and control samples were prepared in rat and mouse serum. A Tecan Evo automated liquid handling station was used to dilute standard curve, high, medium, and low controls, and serum samples in assay buffer, keeping 1% final serum concentration constant. MSD plates were washed again and study samples, standard curve samples and blanks, as well as high, medium, and low controls were added (70 μL/well). The plates were covered, and incubated for 1 hour with shaking (600 rpm) at room temperature.
After incubation, the MSD plates were washed, and 70 μL of sulfo-tagged goat anti-mouse IgG (Meso Scale Discovery; diluted to 1 ug/mL in assay buffer) was added to each well. The MSD plates were covered, and incubated with shaking (600 rpm) for 1 hour at room temperature, then the plates were washed and developed with 2× Read Buffer (Meso Scale Discovery). Chemilumeniscence was measured within ten minutes on the MSD Sector Imager 6000.
Standard curves were analyzed using four-parameter logistic fit and sample concentrations were calculated by XLfit4 software version 2.2.1 Build 16, ([…].). Pharmacokinetic parameters were calculated for each animal using Winonlin software version 5.0.1 (Pharsight Corporation, Mountain View, Calif.) by noncompartmental analysis.
Surgically altered jugular vein cannulated, JVC) and regular male and female Sprague-Dawley Rats (approximately seven weeks old, weighing 240-390 grams) were purchased from Charles River Laboratories (Wilmington, Mass.). The animals were housed in rooms maintained at constant temperature and humidity under 12 hours light/dark cycle, fed with normal rodent chow and were allowed food and water ad libitum. Hydration and clinical conditions of the animals were monitored daily.
Male and female Balb/c mice (weighing approximately 0.025 kg) were purchased from Charles River Laboratories (Wilmington, Mass.). The animals were allowed food and water ad libitum. Blood samples were collected (0.2 mL from the rats via the tail vein and by cardiac puncture from the mice) at various timepoints (5 mice at each timepoint) allowed to clot for 30 minutes at room temperature, centrifuged for 3 minutes at 13,200 rpm, the serum transferred to eppendorf tubes and stored frozen at −80° C.

“And” between values parts separate entries of the source, which are not always exact repeats. Equal values may be shown once.

B1: 2B5-8.0: recombinant anti-PGE2 antibody from solved 2B5 sequence; VH SEQ ID NO 42, VL SEQ ID NO 43 (antibody, V domains shown)
VH: QVQLQQSGPELVRPGSSVKISCKASGYTFTKYWLGWVKQRPGHGLEWIGDIYPGYDYTHYNEKFKDKATLTVDTSSSTAYMQLSSLTSEDSAIYYCARSDGSSTYWGQGTLVTVSA
VL: DVLMTQTPLSLPVSLGDQASISCTSSQNIVHSNGNTYLEWYLQRPGQSPKLLIYKVSNRFSGVPDRFSGSGSGTVFTLKISRVEAEDLGVYYCFQVSHVPYTFGGGTKLEIKR
As to B1, in data set [1] (PGA2), the “PG Selectivity in Biotin-PGE2 Competition ELISA (CRI %) PGA2” value is recorded as 0.21%. In data set [1] (PGD2), the “PG Selectivity in Biotin-PGE2 Competition ELISA (CRI %) PGD2” value was below 0.01%. Besides, in data set [1] (PGE1), the “PG Selectivity in Biotin-PGE2 Competition ELISA (CRI %) PGE1” value stood at 28%. For the same molecule, in data set [2] (female), the “AUC0-∞” value was 12000 ± 4600 µg·h/mL, the “CL” value was determined as 8.88 ± 3.12 mL/day/kg, the “MRT” value is 259 ± 84 h and the distribution volume (Vss) stood at 0.088 ± 0.0062 L/kg. The “Vz” value in data set [2] (female) worked out at 0.101 ± 0.0131 L/kg. Besides, the “T½” value in data set [2] (female, 4 mg/kg) was 214 h and 204 ± 52.8 h. Further, in data set [2] (male), the “AUC0-∞” value was determined as 9900 ± 700 µg·h/mL, the “CL” value was 9.84 ± 0.72 mL/day/kg, the “MRT” value stood at 302 ± 38.4 h and the “T½” value came out at 218 h. Also, in data set [2] (male), the “Vss” value came out at 0.122 ± 0.0185 L/kg and the volume of distribution (Vz) was 0.127 ± 0.0189 L/kg.
